Measured values from publication PMC6021170.

What was measured:
[1] = ELISA of conditioned medium, endogenous prothrombin, HepG2; conditions: glycan changed form; control: untreated HepG2 cells
[2] = ELISA of cell lysates, endogenous prothrombin, HepG2; conditions: glycan changed form; control: untreated HepG2 cells
[3] = western blot of cell lysates, HEK293; conditions: glycan lost; control: PT-WT
[4] = western blot of conditioned medium, HEK293; conditions: glycan lost; control: PT-WT
[5] = target: enteropeptidase mutant EK-4Q (human) (UniProt P00734); experiment: co-IP; lysates of transfected HEK293 cells immunoprecipitated with anti-V5 antibody and protein A-Sepharose; co-precipitated endogenous chaperones detected by western blotting and densitometry; cells without or with DNJ (2 mM, 37°C, 24-48 hr)
[6] = target: prothrombin mutant PT-N416Q (human) (UniProt P98073); experiment: as above
[7] = cell surface biotinylation, western blot densitometry; conditions: glycan lost
[8] = confocal co-staining after 4 hr CHX; conditions: glycan lost; control: WT corin
[9] = confocal co-staining with or without CHX; conditions: glycan lost; control: WT corin
[10] = western blot of cell lysates, zymogen bands; conditions: glycan lost
[11] = western blot, cleaved Corin-p band in lysate; conditions: glycan lost; control: WT corin
[12] = Endo H sensitive/resistant band ratio after 4 hr CHX; conditions: glycan lost; control: WT corin
[13] = cycloheximide chase, lysate western blot; conditions: glycan lost; control: WT corin
[14] = western blot of conditioned medium; conditions: glycan lost
[15] = western blot of cell lysates; conditions: glycan lost
[16] = control: sR801A (soluble corin)

Sequence of UniProt P98073 (P98073 whole entry, stated change not applied): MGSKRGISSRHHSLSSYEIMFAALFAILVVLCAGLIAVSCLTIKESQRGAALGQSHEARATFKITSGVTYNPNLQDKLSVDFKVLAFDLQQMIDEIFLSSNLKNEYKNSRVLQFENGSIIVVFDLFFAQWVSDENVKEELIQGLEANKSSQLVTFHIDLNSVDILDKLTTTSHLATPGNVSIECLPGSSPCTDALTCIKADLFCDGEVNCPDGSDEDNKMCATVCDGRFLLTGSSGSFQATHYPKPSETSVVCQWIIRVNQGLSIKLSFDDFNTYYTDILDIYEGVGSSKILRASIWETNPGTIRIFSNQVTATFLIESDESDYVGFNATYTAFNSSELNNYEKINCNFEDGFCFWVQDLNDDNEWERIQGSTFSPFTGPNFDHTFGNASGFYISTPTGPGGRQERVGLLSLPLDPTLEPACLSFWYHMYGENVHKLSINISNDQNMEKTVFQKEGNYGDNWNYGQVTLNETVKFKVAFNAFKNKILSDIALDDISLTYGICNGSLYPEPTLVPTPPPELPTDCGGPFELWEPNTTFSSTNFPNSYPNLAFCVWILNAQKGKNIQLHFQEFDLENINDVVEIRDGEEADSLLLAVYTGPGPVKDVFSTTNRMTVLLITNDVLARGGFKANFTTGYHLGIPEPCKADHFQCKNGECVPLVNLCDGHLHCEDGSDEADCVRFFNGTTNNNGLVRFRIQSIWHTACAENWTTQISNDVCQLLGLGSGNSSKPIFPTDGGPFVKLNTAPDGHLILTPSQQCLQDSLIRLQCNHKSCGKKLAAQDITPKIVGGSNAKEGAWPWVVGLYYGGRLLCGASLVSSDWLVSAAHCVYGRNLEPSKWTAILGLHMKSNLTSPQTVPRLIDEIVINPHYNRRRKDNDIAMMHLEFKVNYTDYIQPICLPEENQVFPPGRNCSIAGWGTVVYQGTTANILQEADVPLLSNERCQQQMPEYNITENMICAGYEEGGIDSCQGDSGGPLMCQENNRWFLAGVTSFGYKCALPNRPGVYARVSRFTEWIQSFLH

Question: Which “expression_or_secretion, percent_of_wt” value [1] does the source give for prothrombin (PT): DNJ here?
Answer: decreases

Question: What about the expression_or_secretion [2] of the same molecule?
Answer: no change

Question: For prothrombin (PT): PT-N416Q, which expression_or_secretion [3] is on record?
Answer: no change

Question: And the “expression_or_secretion, percent_of_wt” value [4]?
Answer: decreases

B1: calnexin (natural protein)
chain: HDGHDDDVIDIEDDLDDVIEEVEDSKPDTTAPPSSPKVTYKAPVPTGEVYFADSFDRGTLSGWILSKAKKDDTDDEIAKYDGKWEVEEMKESKLPGDKGLVLMSRAKHHAISAKLNKPFLFDTKPLIVQYEVNFQNGIECGGAYVKLLSKTPELNLDQFHDKTPYTIMFGPDKCGEDYKLHFIFRHKNPKTGIYEEKHAKRPDADLKTYFTDKKTHLYTLILNPDNSFEILVDQSVVNSGNLLNDMTPPVNPSREIEDPEDRKPEDWDERPKIPDPEAVKPDDWDEDAPAKIPDEEATKPEGWLDDEPEYVPDPDAEKPEDWDEDMDGEWEAPQIANPRCESAPGCGVWQRPVIDNPNYKGKWKPPMIDNPSYQGIWKPRKIPNPDFFEDLEPFRMTPFSAIGLELWSMTSDIFFDNFIICADRRIVDDWANDGWGLKKAADGAAEPGVVGQMIEAAEERPWLWVVYILTVALPVFLVILFCCSGKKQTSGMEYKKTDAPQPDVKEEEEEKEEEKDKGDEEEEGEEKLEEKQKSDAEEDGGTVSQEEEDRKPKAEEDEILNRSPRNRKPRRE
Question: Which co-precipitated level, percent of that with EK-WT [5] does the source give for B1 here?
Answer: 165%

Question: What about the co-precipitated level, percent of that with PT-WT [6] of the same molecule?
Answer: 171%

B2: corin: N1022Q (protein)
parent chain: MKQSPALAPEERCRRAGSPKPVLRADDNNMGNGCSQKLATANLLRFLLLVLIPCICALVLLLVILLSYVGTLQKVYFKSNGSEPLVTDGEIQGSDVILTNTIYNQSTVVSTAHPDQHVPAWTTDASLPGDQSHRNTSACMNITHSQCQMLPYHATLTPLLSVVRNMEMEKFLKFFTYLHRLSCYQHIMLFGCTLAFPECIIDGDDSHGLLPCRSFCEAAKEGCESVLGMVNYSWPDFLRCSQFRNQTESSNVSRICFSPQQENGKQLLCGRGENFLCASGICIPGKLQCNGYNDCDDWSDEAHCNCSENLFHCHTGKCLNYSLVCDGYDDCGDLSDEQNCDCNPTTEHRCGDGRCIAMEWVCDGDHDCVDKSDEVNCSCHSQGLVECRNGQCIPSTFQCDGDEDCKDGSDEENCSVIQTSCQEGDQRCLYNPCLDSCGGSSLCDPNNSLNNCSQCEPITLELCMNLPYNSTSYPNYFGHRTQKEASISWESSLFPALVQTNCYKYLMFFSCTILVPKCDVNTGEHIPPCRALCEHSKERCESVLGIVGLQWPEDTDCSQFPEENSDNQTCLMPDEYVEECSPSHFKCRSGQCVLASRRCDGQADCDDDSDEENCGCKERDLWECPSNKQCLKHTVICDGFPDCPDYMDEKNCSFCQDDELECANHACVSRDLWCDGEADCSDSSDEWDCVTLSINVNSSSFLMVHRAATEHHVCADGWQEILSQLACKQMGLGEPSVTKLIQEQEKEPRWLTLHSNWESLNGTTLHELLVNGQSCESRSKISLLCTKQDCGRRPAARMNKRILGGRTSRPGRWPWQCSLQSEPSGHICGCVLIAKKWVLTVAHCFEGRENAAVWKVVLGINNLDHPSVFMQTRFVKTIILHPRYSRAVVDYDISIVELSEDISETGYVRPVCLPNPEQWLEPDTYCYITGWGHMGNKMPFKLQEGEVRIISLEHCQSYFDMKTITTRMICAGYESGTVDSCMGDSGGPLVCEKPGGRWTLFGLTSWGSVCFSKVLGPGVYSNVSYFVEWIKRQIYIQTFLLN
Question: Which “expression_or_secretion, percent_of_wt” value ([7]; control: WT corin) does the source give for B2 here?
Answer: decreases

Question: And the “localisation_or_trafficking, other: Pearson's correlation coefficient” value [8]?
Answer: increases, 0.35 ± 0.05 vs 0.15 ± 0.06

Question: What about the localisation_or_trafficking [9] of the same molecule?
Answer: no change

Question: What about the expression_or_secretion ([10]; control: WT corin) of the same molecule?
Answer: no change

Question: What about the “other: proteolytic processing” value [11] of the same molecule?
Answer: decreases

Question: What about the localisation_or_trafficking [12] of the same molecule?
Answer: changes

Question: And the “degradation_or_half_life, half_life” value [13]?
Answer: increases, 6.1 ± 0.3 vs 3.8 ± 0.4

B3: corin: sR801A/N1022Q (protein)
parent chain: MKQSPALAPEERCRRAGSPKPVLRADDNNMGNGCSQKLATANLLRFLLLVLIPCICALVLLLVILLSYVGTLQKVYFKSNGSEPLVTDGEIQGSDVILTNTIYNQSTVVSTAHPDQHVPAWTTDASLPGDQSHRNTSACMNITHSQCQMLPYHATLTPLLSVVRNMEMEKFLKFFTYLHRLSCYQHIMLFGCTLAFPECIIDGDDSHGLLPCRSFCEAAKEGCESVLGMVNYSWPDFLRCSQFRNQTESSNVSRICFSPQQENGKQLLCGRGENFLCASGICIPGKLQCNGYNDCDDWSDEAHCNCSENLFHCHTGKCLNYSLVCDGYDDCGDLSDEQNCDCNPTTEHRCGDGRCIAMEWVCDGDHDCVDKSDEVNCSCHSQGLVECRNGQCIPSTFQCDGDEDCKDGSDEENCSVIQTSCQEGDQRCLYNPCLDSCGGSSLCDPNNSLNNCSQCEPITLELCMNLPYNSTSYPNYFGHRTQKEASISWESSLFPALVQTNCYKYLMFFSCTILVPKCDVNTGEHIPPCRALCEHSKERCESVLGIVGLQWPEDTDCSQFPEENSDNQTCLMPDEYVEECSPSHFKCRSGQCVLASRRCDGQADCDDDSDEENCGCKERDLWECPSNKQCLKHTVICDGFPDCPDYMDEKNCSFCQDDELECANHACVSRDLWCDGEADCSDSSDEWDCVTLSINVNSSSFLMVHRAATEHHVCADGWQEILSQLACKQMGLGEPSVTKLIQEQEKEPRWLTLHSNWESLNGTTLHELLVNGQSCESRSKISLLCTKQDCGRRPAARMNKRILGGRTSRPGRWPWQCSLQSEPSGHICGCVLIAKKWVLTVAHCFEGRENAAVWKVVLGINNLDHPSVFMQTRFVKTIILHPRYSRAVVDYDISIVELSEDISETGYVRPVCLPNPEQWLEPDTYCYITGWGHMGNKMPFKLQEGEVRIISLEHCQSYFDMKTITTRMICAGYESGTVDSCMGDSGGPLVCEKPGGRWTLFGLTSWGSVCFSKVLGPGVYSNVSYFVEWIKRQIYIQTFLLN
Question: With B3 as the molecule, how does the “expression_or_secretion, percent_of_wt” value [14, 16] read?
Answer: decreases

Question: What about the expression_or_secretion [15, 16] of the same molecule?
Answer: no change

B4: corin: sN1022Q (protein)
parent chain: MKQSPALAPEERCRRAGSPKPVLRADDNNMGNGCSQKLATANLLRFLLLVLIPCICALVLLLVILLSYVGTLQKVYFKSNGSEPLVTDGEIQGSDVILTNTIYNQSTVVSTAHPDQHVPAWTTDASLPGDQSHRNTSACMNITHSQCQMLPYHATLTPLLSVVRNMEMEKFLKFFTYLHRLSCYQHIMLFGCTLAFPECIIDGDDSHGLLPCRSFCEAAKEGCESVLGMVNYSWPDFLRCSQFRNQTESSNVSRICFSPQQENGKQLLCGRGENFLCASGICIPGKLQCNGYNDCDDWSDEAHCNCSENLFHCHTGKCLNYSLVCDGYDDCGDLSDEQNCDCNPTTEHRCGDGRCIAMEWVCDGDHDCVDKSDEVNCSCHSQGLVECRNGQCIPSTFQCDGDEDCKDGSDEENCSVIQTSCQEGDQRCLYNPCLDSCGGSSLCDPNNSLNNCSQCEPITLELCMNLPYNSTSYPNYFGHRTQKEASISWESSLFPALVQTNCYKYLMFFSCTILVPKCDVNTGEHIPPCRALCEHSKERCESVLGIVGLQWPEDTDCSQFPEENSDNQTCLMPDEYVEECSPSHFKCRSGQCVLASRRCDGQADCDDDSDEENCGCKERDLWECPSNKQCLKHTVICDGFPDCPDYMDEKNCSFCQDDELECANHACVSRDLWCDGEADCSDSSDEWDCVTLSINVNSSSFLMVHRAATEHHVCADGWQEILSQLACKQMGLGEPSVTKLIQEQEKEPRWLTLHSNWESLNGTTLHELLVNGQSCESRSKISLLCTKQDCGRRPAARMNKRILGGRTSRPGRWPWQCSLQSEPSGHICGCVLIAKKWVLTVAHCFEGRENAAVWKVVLGINNLDHPSVFMQTRFVKTIILHPRYSRAVVDYDISIVELSEDISETGYVRPVCLPNPEQWLEPDTYCYITGWGHMGNKMPFKLQEGEVRIISLEHCQSYFDMKTITTRMICAGYESGTVDSCMGDSGGPLVCEKPGGRWTLFGLTSWGSVCFSKVLGPGVYSNVSYFVEWIKRQIYIQTFLLN
Question: Which “expression_or_secretion, percent_of_wt” value ([14]; control: sWT (soluble corin)) does the source give for B4 here?
Answer: decreases

Question: What about the expression_or_secretion ([15]; control: sWT (soluble corin)) of the same molecule?
Answer: no change

B5: corin: R801A/N1022Q (protein)
parent chain: MKQSPALAPEERCRRAGSPKPVLRADDNNMGNGCSQKLATANLLRFLLLVLIPCICALVLLLVILLSYVGTLQKVYFKSNGSEPLVTDGEIQGSDVILTNTIYNQSTVVSTAHPDQHVPAWTTDASLPGDQSHRNTSACMNITHSQCQMLPYHATLTPLLSVVRNMEMEKFLKFFTYLHRLSCYQHIMLFGCTLAFPECIIDGDDSHGLLPCRSFCEAAKEGCESVLGMVNYSWPDFLRCSQFRNQTESSNVSRICFSPQQENGKQLLCGRGENFLCASGICIPGKLQCNGYNDCDDWSDEAHCNCSENLFHCHTGKCLNYSLVCDGYDDCGDLSDEQNCDCNPTTEHRCGDGRCIAMEWVCDGDHDCVDKSDEVNCSCHSQGLVECRNGQCIPSTFQCDGDEDCKDGSDEENCSVIQTSCQEGDQRCLYNPCLDSCGGSSLCDPNNSLNNCSQCEPITLELCMNLPYNSTSYPNYFGHRTQKEASISWESSLFPALVQTNCYKYLMFFSCTILVPKCDVNTGEHIPPCRALCEHSKERCESVLGIVGLQWPEDTDCSQFPEENSDNQTCLMPDEYVEECSPSHFKCRSGQCVLASRRCDGQADCDDDSDEENCGCKERDLWECPSNKQCLKHTVICDGFPDCPDYMDEKNCSFCQDDELECANHACVSRDLWCDGEADCSDSSDEWDCVTLSINVNSSSFLMVHRAATEHHVCADGWQEILSQLACKQMGLGEPSVTKLIQEQEKEPRWLTLHSNWESLNGTTLHELLVNGQSCESRSKISLLCTKQDCGRRPAARMNKAILGGRTSRPGRWPWQCSLQSEPSGHICGCVLIAKKWVLTVAHCFEGRENAAVWKVVLGINNLDHPSVFMQTRFVKTIILHPRYSRAVVDYDISIVELSEDISETGYVRPVCLPNPEQWLEPDTYCYITGWGHMGNKMPFKLQEGEVRIISLEHCQSYFDMKTITTRMICAGYESGTVDSCMGDSGGPLVCEKPGGRWTLFGLTSWGSVCFSKVLGPGVYSNVSYFVEWIKRQIYIQTFLLN
Question: For B5, which “expression_or_secretion, percent_of_wt” value ([7]; control: R801A corin) is on record?
Answer: decreases

Question: And the expression_or_secretion ([10]; control: R801A corin)?
Answer: no change
